Experimental data as given in US20180127493A1.
Each block holds one binder with its values, some of them ahead of it.

Key:
[1] = molecular target: recombinant human VEGF165 (PeproTech EC Ltd.) (human) (UniProt P15692); experiment: SPR, BIAcore T100, hVEGF165 amine-coupled on CM4 chip, scFv as analyte
[2] = molecular target: Human TNFα N-his trimers (human) (UniProt P01375); experiment: SPR, BIAcore T100, His-tagged human TNFα trimers captured on NTA chip, scFv as analyte
[3] = molecular target: VEGF (as used in the VEGFR competition ELISA); experiment: competition ELISA, VEGF binding to hVEGFR1; ratio to reference Luc
VEGF (as used in the VEGFR competition ELISA), sequence (P15692 whole entry): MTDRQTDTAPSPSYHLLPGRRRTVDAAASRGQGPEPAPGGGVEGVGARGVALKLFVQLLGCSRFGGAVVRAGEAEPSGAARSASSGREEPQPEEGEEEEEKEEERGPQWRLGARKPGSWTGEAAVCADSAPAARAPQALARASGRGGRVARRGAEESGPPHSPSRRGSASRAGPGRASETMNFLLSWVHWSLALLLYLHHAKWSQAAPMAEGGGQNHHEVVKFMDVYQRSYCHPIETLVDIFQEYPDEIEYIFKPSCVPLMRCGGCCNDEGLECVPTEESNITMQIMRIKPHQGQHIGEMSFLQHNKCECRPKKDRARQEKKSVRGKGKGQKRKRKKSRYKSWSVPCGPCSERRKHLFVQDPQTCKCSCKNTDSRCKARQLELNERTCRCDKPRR

recombinant human VEGF165 (PeproTech EC Ltd.) (human), sequence (P15692 other isoform, or with tags, fused parts or gaps limits assumed): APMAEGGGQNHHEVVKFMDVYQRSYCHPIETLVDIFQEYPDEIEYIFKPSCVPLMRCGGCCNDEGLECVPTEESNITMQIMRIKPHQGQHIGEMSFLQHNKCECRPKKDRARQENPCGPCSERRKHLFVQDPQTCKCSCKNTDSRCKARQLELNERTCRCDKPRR
Human TNFα N-his trimers (human), sequence (P01375 77-233 limits assumed): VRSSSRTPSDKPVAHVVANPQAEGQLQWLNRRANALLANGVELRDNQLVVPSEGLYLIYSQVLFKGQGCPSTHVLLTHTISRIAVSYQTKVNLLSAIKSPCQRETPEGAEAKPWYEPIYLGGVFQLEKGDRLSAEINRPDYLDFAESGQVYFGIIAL

Kd [1]: 0.439 nM | koff [1]: 0.000307 s⁻¹ | kon [1]: 700000 M⁻¹ s⁻¹
B1: 578-max (scFv, from a related filing, part only)
scFv: EIVMTQSPSTLSASVGDRVIITCQASEIIHSWLAWYQQKPGKAPKLLIYLASTLASGVPSRFSGSGSGTQFTLTISSLQPDDFATYYCQNVYLASTNGANFGQGTKLTVLGGGGGSGGGGSGGGGSGGGGSEVQLVESGGGLVQPGGSLRLSCTASGFSLTDYYYMTWVRQAPGKGLEWVGFIDPDDDPYYATWAKGRFTISRDTSKNTVYLQMNSLRAEDTAVYYCAGGDHNSGWGLDIWGQGTLVTVSS

Kd [2]: 5540 nM
B2: EP43_min (scFv)
scFv: EIVMTQSPSTLSASVGDRVIITCQASQSISDWLAWYQQKPGKAPKLLIYGASRLASGVPSRFSGSGSGAEFTLTISSLQPDDFATYYCQQGWSDSYVDNLFGQGTKLTVLGGGGGSGGGGSGGGGSGGGGSEVQLVESGGGLVQPGGSLRLSCAASGFSLSSGAMSWVRQAPGKGLEWVSVIISSGATYYASWAKGRFTISRDNSKNTLYLQMNSLRAEDTAVYYCAKGGPDDSNSMGTFDPWGQGTLVTVSS

Rel. activity hVEGR1 comp. ELISA (EC50Luc [nM]/EC50test [nM]) [3]: 8 | Kd [1]: 0.0667 nM | koff [1]: 4.4e-05 s⁻¹ | kon [1]: 659000 M⁻¹ s⁻¹
B3: 511-max (scFv, from a related filing, part only)
scFv: EIVMTQSPSTLSASVGDRVIITCQASQSINIWLSWYQQKPGKAPKLLIYRASTLASGVPSRFSGSGSGTEFTLTISSLQPDDFATYYCQANYAYSAGYGAAFGQGTKLTVLGGGGGSGGGGSGGGGSGGGGSEVQLVESGGGLVQPGGSLRLSCTVSGFSLNTYYMNWVRQAPGKGLEWVGIIAPDDTTYYASWAKSRSTISRDTSKNTVYLQMNSLRAEDTAVYYCARSGDTTAWGADIWGQGTLVTVSS
